This experiment addresses T1, fatty acid synthase (FAS) from Saccharomyces cerevisiae, beta subunit (forms the beta-domes) (Saccharomyces cerevisiae, UniProt P07149 1-2051).
T1 construct: Fatty acid synthase subunit beta, Saccharomyces cerevisiae; also called yeast FAS
As to the kind of experiment: cryo-EM structure; single-particle cryo-EM of purified FAS complex (0.2 mg/ml) on hydrophilized graphene grids; maps at 4.8 Å (C1) and 4.0 Å (D3 symmetry). Conditions: both partners purified.

T1 sequence (P07149 whole entry): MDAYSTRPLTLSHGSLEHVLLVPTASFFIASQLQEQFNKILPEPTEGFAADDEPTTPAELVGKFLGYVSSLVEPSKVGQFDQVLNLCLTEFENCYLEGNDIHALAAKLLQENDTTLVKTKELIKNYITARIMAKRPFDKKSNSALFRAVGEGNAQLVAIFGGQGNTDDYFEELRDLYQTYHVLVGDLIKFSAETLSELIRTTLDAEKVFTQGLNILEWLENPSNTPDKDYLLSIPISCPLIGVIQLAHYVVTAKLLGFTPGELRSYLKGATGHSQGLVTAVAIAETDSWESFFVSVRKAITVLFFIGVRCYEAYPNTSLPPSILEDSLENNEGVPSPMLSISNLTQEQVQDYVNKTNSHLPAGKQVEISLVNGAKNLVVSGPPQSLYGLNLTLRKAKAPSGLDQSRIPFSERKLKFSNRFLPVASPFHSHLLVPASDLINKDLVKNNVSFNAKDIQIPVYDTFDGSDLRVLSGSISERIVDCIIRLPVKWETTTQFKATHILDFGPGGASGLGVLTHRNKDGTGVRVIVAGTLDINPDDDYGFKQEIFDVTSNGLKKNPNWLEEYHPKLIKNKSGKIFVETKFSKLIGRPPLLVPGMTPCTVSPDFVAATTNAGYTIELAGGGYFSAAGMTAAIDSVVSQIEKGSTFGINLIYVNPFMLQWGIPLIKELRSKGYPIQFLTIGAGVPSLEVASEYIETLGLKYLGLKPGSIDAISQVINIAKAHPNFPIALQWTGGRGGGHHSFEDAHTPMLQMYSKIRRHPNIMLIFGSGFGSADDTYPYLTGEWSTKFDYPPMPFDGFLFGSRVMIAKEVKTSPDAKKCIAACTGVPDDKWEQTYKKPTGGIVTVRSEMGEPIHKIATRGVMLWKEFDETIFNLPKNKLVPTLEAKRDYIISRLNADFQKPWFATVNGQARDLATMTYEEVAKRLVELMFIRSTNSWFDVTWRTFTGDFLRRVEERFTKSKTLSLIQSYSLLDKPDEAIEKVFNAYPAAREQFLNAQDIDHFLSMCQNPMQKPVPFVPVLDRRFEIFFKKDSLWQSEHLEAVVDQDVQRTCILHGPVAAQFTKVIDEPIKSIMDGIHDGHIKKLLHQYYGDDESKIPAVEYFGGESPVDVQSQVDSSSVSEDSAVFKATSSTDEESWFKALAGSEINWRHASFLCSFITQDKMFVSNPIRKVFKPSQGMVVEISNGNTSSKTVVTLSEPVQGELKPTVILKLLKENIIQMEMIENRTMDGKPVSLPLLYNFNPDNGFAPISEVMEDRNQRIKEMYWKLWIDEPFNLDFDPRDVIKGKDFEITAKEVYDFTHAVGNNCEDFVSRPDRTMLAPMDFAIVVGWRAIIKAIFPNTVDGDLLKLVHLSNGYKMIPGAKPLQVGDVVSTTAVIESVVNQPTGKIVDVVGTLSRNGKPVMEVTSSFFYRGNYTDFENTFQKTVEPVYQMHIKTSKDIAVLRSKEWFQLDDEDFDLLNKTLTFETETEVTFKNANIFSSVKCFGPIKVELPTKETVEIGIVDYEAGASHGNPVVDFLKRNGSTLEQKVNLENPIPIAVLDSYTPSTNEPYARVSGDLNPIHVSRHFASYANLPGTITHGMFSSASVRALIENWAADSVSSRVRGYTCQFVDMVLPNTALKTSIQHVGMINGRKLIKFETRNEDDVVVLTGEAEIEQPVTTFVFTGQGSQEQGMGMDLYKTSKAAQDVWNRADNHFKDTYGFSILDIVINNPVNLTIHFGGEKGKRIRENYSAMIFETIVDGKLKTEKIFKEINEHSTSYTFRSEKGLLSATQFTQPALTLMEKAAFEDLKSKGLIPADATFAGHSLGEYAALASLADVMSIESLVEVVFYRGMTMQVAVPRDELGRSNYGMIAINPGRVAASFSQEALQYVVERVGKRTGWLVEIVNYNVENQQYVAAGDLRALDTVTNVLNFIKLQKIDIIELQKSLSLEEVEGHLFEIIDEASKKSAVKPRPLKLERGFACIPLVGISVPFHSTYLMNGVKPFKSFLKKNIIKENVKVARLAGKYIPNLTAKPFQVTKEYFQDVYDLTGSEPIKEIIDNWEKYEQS

B1: fatty acid synthase (FAS) from Saccharomyces cerevisiae, alpha subunit (forms the alpha wheel) (natural protein, UniProt P19097 1-1887, looked up)
chain: MKPEVEQELAHILLTELLAYQFASPVRWIETQDVFLKDFNTERVVEIGPSPTLAGMAQRTLKNKYESYDAALSLHREILCYSKDAKEIYYTPDPSELAAKEEPAKEEAPAPTPAASAPAPAAAAPAPVAAAAPAAAAAEIADEPVKASLLLHVLVAHKLKKSLDSIPMSKTIKDLVGGKSTVQNEILGDLGKEFGTTPEKPEETPLEELAETFQDTFSGALGKQSSSLLSRLISSKMPGGFTITVARKYLQTRWGLPSGRQDGVLLVALSNEPAARLGSEADAKAFLDSMAQKYASIVGVDLSSAASASGAAGAGAAAGAAMIDAGALEEITKDHKVLARQQLQVLARYLKMDLDNGERKFLKEKDTVAELQAQLDYLNAELGEFFVNGVATSFSRKKARTFDSSWNWAKQSLLSLYFEIIHGVLKNVDREVVSEAINIMNRSNDALIKFMEYHISNTDETKGENYQLVKTLGEQLIENCKQVLDVDPVYKDVAKPTGPKTAIDKNGNITYSEEPREKVRKLSQYVQEMALGGPITKESQPTIEEDLTRVYKAISAQADKQDISSSTRVEFEKLYSDLMKFLESSKEIDPSQTTQLAGMDVEDALDKDSTKEVASLPNKSTISKTVSSTIPRETIPFLHLRKKTPAGDWKYDRQLSSLFLDGLEKAAFNGVTFKDKYVLITGAGKGSIGAEVLQGLLQGGAKVVVTTSRFSKQVTDYYQSIYAKYGAKGSTLIVVPFNQGSKQDVEALIEFIYDTEKNGGLGWDLDAIIPFAAIPEQGIELEHIDSKSEFAHRIMLTNILRMMGCVKKQKSARGIETRPAQVILPMSPNHGTFGGDGMYSESKLSLETLFNRWHSESWANQLTVCGAIIGWTRGTGLMSANNIIAEGIEKMGVRTFSQKEMAFNLLGLLTPEVVELCQKSPVMADLNGGLQFVPELKEFTAKLRKELVETSEVRKAVSIETALEHKVVNGNSADAAYAQVEIQPRANIQLDFPELKPYKQVKQIAPAELEGLLDLERVIVVTGFAEVGPWGSARTRWEMEAFGEFSLEGCVEMAWIMGFISYHNGNLKGRPYTGWVDSKTKEPVDDKDVKAKYETSILEHSGIRLIEPELFNGYNPEKKEMIQEVIVEEDLEPFEASKETAEQFKHQHGDKVDIFEIPETGEYSVKLLKGATLYIPKALRFDRLVAGQIPTGWNAKTYGISDDIISQVDPITLFVLVSVVEAFIASGITDPYEMYKYVHVSEVGNCSGSGMGGVSALRGMFKDRFKDEPVQNDILQESFINTMSAWVNMLLISSSGPIKTPVGACATSVESVDIGVETILSGKARICIVGGYDDFQEEGSFEFGNMKATSNTLEEFEHGRTPAEMSRPATTTRNGFMEAQGAGIQIIMQADLALKMGVPIYGIVAMAATATDKIGRSVPAPGKGILTTAREHHSSVKYASPNLNMKYRKRQLVTREAQIKDWVENELEALKLEAEEIPSEDQNEFLLERTREIHNEAESQLRAAQQQWGNDFYKRDPRIAPLRGALATYGLTIDDLGVASFHGTSTKANDKNESATINEMMKHLGRSEGNPVIGVFQKFLTGHPKGAAGAWMMNGALQILNSGIIPGNRNADNVDKILEQFEYVLYPSKTLKTDGVRAVSITSFGFGQKGGQAIVVHPDYLYGAITEDRYNEYVAKVSAREKSAYKFFHNGMIYNKLFVSKEHAPYTDELEEDVYLDPLARVSKDKKSGSLTFNSKNIQSKDSYINANTIETAKMIENMTKEKVSNGGVGVDVELITSINVENDTFIERNFTPQEIEYCSAQPSVQSSFAGTWSAKEAVFKSLGVKSLGGGAALKDIEIVRVNKNAPAVELHGNAKKAAEEAGVTDVKVSISHDDLQAVAVAVSTKK
notes: Fatty acid synthase subunit alpha, Saccharomyces cerevisiae; also called yeast FAS
In the case of B1, the binding result is reported as “binds”.

These data come from publication PMC6443348, “Protein denaturation at the air-water interface and how to prevent it” (eLife, 2019).
